From patent US20240279312A1 (Hoffmann-La Roche, published 2024)
“And” between values parts separate entries of the source, which are not always exact repeats. Identical values can stand only once.

Tests used:
[1] = molecular target: recombinant von Willebrand Factor A1 domain (amino acids 1277-1453 of human vWF) (human) (UniProt P04275); experiment: fluorescence anisotropy; particle-bound dimeric polypeptide titrated against 150 nM vWF A1-AlexaFluor 488
[2] = molecular target: T1, human von Willebrand Factor of human blood plasma (human, UniProt P04275 764-2813); experiment: sandwich ELISA: polypeptide captured on anti-CD42b, plasma added, detection with polyclonal rabbit anti-human vWF-HRP
T1 construct: mature; Native plasma protein in ELISA samples; also called vWF; plasma vWF
Source text: FIG. 4A is a cartoon of the enzyme-linked immunosorbent assay (ELISA) used to generate the data in FIG. 4B-4D. A solid support was coated with anti-glycoprotein Ibα antibody (anti-CD42b), which was used to immobilize recombinant polypeptide comprising a modified extracellular domain of platelet glycoprotein Ibα (CD42b; GPIbα; GP1b constructs). The solid support was then contacted with human blood plasma, von Willebrand Factor calibrators, or von Willebrand Factor controls. The solid support was then contacted with a polyclonal rabbit anti-human von Willebrand Factor antibody to which horseradish peroxidase (HRP) was conjugated. The composition was then contacted with a substrate capable of being converted into a product by HRP with a strong absorbance at 450 nm, and absorbance was measured.
Enzyme immunosorbent assays (ELISA) were used to determine that recombinant polypeptides comprising the G233T (SEQ ID NO: 21), D235V (SEQ ID NO: 30), and K237V (SEQ ID NO: 31) mutations are capable of detecting qualitative differences in vWF binding affinity. […] Briefly, the wells of a multi-well plate were coated with an anti-CD42b antibody, which specifically binds the modified extracellular domain of GPIbα of the recombinant polypeptides and was used to indirectly cross-link the recombinant polypeptides to the multi-well plate (i.e., the solid support). Various control samples, standards, and serial dilutions thereof were added to different wells of the multi-well plate including plasma samples associated with type 1, type 2B, and type 3 von Willebrand Disease, control samples of pooled human blood plasma, control samples of human blood plasma known not to have von Willebrand Disease, a 2× serial dilution of a reference standard of pooled human plasma from no dilution to 16-fold dilution, and goat blood serum as a negative control. […] Bound vWF was quantified by monitoring the conversion of a horseradish peroxidase substrate into product by absorption spectroscopy at 450 nm.

[3] = molecular target: recombinant von Willebrand Factor A1 domain (amino acids 1277-1453 of human vWF) (human) (UniProt P04275); experiment: SPR (Biacore); vWF A1 domain on CM5 chip, soluble polypeptide; Kd from on- and off-rates; SPR (Biacore), vWF A1 domain on CM5 chip

T1 sequence (P04275 764-2813 limits assumed): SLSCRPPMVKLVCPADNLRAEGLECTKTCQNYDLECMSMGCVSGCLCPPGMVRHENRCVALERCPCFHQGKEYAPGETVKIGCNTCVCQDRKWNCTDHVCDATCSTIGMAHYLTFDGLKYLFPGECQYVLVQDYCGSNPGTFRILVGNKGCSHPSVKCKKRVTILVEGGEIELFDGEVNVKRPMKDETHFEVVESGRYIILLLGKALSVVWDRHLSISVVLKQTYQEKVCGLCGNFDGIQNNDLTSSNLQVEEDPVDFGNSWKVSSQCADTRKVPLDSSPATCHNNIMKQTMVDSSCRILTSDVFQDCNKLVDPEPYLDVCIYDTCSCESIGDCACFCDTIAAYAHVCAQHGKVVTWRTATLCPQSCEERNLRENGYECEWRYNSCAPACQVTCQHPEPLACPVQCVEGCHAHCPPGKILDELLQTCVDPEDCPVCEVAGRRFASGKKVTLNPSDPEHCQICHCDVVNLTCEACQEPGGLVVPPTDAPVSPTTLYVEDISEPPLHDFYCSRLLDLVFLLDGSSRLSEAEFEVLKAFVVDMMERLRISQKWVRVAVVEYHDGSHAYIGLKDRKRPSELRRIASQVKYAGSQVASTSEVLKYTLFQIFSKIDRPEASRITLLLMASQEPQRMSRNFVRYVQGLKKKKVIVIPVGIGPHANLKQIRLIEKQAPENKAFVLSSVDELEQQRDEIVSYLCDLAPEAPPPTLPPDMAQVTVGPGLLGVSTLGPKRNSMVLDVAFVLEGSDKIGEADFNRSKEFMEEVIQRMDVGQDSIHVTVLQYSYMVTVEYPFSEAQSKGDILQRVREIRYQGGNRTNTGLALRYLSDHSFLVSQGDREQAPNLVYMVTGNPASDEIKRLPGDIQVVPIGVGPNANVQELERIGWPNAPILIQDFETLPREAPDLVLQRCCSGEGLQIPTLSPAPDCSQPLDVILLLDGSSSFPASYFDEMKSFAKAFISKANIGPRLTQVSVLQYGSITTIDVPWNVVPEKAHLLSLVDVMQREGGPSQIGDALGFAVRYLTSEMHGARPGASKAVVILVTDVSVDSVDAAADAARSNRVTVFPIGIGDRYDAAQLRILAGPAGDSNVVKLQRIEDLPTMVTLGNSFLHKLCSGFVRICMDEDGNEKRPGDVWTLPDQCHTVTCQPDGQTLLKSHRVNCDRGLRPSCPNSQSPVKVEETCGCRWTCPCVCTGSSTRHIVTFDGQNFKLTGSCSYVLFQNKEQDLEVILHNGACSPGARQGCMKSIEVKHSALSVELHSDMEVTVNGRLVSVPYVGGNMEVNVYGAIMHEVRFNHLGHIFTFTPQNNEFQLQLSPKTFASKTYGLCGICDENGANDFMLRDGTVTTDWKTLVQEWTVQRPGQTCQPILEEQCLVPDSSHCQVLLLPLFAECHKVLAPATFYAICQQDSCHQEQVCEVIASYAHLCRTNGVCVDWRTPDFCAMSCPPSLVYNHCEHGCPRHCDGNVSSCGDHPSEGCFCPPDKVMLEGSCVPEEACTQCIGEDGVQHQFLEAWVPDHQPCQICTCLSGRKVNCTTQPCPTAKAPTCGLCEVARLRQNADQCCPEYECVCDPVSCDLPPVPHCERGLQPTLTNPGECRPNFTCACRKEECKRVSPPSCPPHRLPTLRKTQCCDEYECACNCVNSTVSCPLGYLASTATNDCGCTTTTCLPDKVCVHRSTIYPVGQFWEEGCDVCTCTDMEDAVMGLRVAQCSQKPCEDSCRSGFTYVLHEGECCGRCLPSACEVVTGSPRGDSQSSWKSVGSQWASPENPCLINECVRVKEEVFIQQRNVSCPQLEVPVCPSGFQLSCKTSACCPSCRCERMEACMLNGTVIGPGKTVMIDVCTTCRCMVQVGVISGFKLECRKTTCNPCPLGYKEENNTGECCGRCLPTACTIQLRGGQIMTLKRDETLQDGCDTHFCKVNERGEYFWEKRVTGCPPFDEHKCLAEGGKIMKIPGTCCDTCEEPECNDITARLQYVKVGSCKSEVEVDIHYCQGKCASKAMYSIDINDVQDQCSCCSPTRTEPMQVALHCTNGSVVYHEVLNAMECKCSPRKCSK
Sequence of recombinant von Willebrand Factor A1 domain (amino acids 1277-1453 of human vWF) (human) (P04275 1277-1453 limits assumed, form in doubt): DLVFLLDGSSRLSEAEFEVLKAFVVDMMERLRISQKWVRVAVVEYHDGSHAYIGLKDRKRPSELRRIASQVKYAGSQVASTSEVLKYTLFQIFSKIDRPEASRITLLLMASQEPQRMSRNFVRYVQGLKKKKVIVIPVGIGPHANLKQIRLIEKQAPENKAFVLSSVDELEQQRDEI

Molecule | Kd [1] | binding result [2] | Kd [3]
dimeric polypeptide of SEQ ID NO: 21: GPIbα extracellular domain with C65S and G233T, murine IgG1 Fc dimerization domain, 8-His tag (Fc fusion, On particles in fluorescence anisotropy, soluble in SPR, captured by anti-CD42b in ELISA; also called G233T mutant; G233T recombinant polypeptide) HPICEVSKVASHLEVNCDKRNLTALPPDLPKDTTILHLSENLLYTFSLATLMPYTRLTQLNLDRSELTKLQVDGTLPVLGTLDLSHNQLQSLPLLGQTLPALTVLDVSFNRLTSLPLGALRGLGELQELYLKGNELKTLPPGLLTPTPKLEKLSLANNNLTELPAGLLNGLENLDTLLLQENSLYTIPKGFFGSHLLPFAFLHGNPWLCNCEILYFRRWLQDNAENVYVWKQTVDVKAMTSNVASVQCDNSDKFPVYKYPGKGCPTLGDEGDTDLYDYYPEEDTEGDKVRVPRDCGCKPCICTVPEVSSVFIFPPKPKDVLTITLTPKVTCVVVDISKDDPEVQFSWFVDDVEVHTAQTQPREEQFNSTFRSVSELPIMHQDWLNGKEFKCRVNSAAFPAPIEKTISKTKGRPKAPQVYTIPPPKEQMAKDKVSLTCMITDFFPEDITVEWQWNGQPAENYKNTQPIMDTDGSYFVYSKLNVQKSNWEAGNTFTCSVLHEGLHNHHTEKSLSHSPGIGHHHHHHHH | 67 nM and < 500 nM | binds | 58 nM
dimeric polypeptide of SEQ ID NO: 30: GPIbα extracellular domain with C65S and D235V, murine Fc dimerization domain (Fc fusion, also called D235V mutant) HPICEVSKVASHLEVNCDKRNLTALPPDLPKDTTILHLSENLLYTFSLATLMPYTRLTQLNLDRSELTKLQVDGTLPVLGTLDLSHNQLQSLPLLGQTLPALTVLDVSFNRLTSLPLGALRGLGELQELYLKGNELKTLPPGLLTPTPKLEKLSLANNNLTELPAGLLNGLENLDTLLLQENSLYTIPKGFFGSHLLPFAFLHGNPWLCNCEILYFRRWLQDNAENVYVWKQGVVVKAMTSNVASVQCDNSDKFPVYKYPGKGCPTLGDEGDTDLYDYYPEEDTEGDKVRVPRDCGCKPCICTVPEVSSVFIFPPKPKDVLTITLTPKVTCVVVDISKDDPEVQFSWFVDDVEVHTAQTQPREEQFNSTFRSVSELPIMHQDWLNGKEFKCRVNSAAFPAPIEKTISKTKGRPKAPQVYTIPPPKEQMAKDKVSLTCMITDFFPEDITVEWQWNGQPAENYKNTQPIMDTDGSYFVYSKLNVQKSNWEAGNTFTCSVLHEGLHNHHTEKSLSHSPGIGHHHHHHHH | < 500 nM and 250 nM | binds | 

The remaining lines, values ahead:

Kd [1] | binding result [2] | Kd [3] | Molecule
1250 nM |  |  | dimeric polypeptide of SEQ ID NO: 37 (WT): GPIbα extracellular domain without gain- or loss-of-function mutation, murine Fc dimerization domain (Fc fusion)
< 500 nM and 300 nM | binds |  | dimeric polypeptide of SEQ ID NO: 31: GPIbα extracellular domain with C65S and K237V, murine Fc dimerization domain (Fc fusion, also called K237V mutant) HPICEVSKVASHLEVNCDKRNLTALPPDLPKDTTILHLSENLLYTFSLATLMPYTRLTQLNLDRSELTKLQVDGTLPVLGTLDLSHNQLQSLPLLGQTLPALTVLDVSFNRLTSLPLGALRGLGELQELYLKGNELKTLPPGLLTPTPKLEKLSLANNNLTELPAGLLNGLENLDTLLLQENSLYTIPKGFFGSHLLPFAFLHGNPWLCNCEILYFRRWLQDNAENVYVWKQGVDVVAMTSNVASVQCDNSDKFPVYKYPGKGCPTLGDEGDTDLYDYYPEEDTEGDKVRVPRDCGCKPCICTVPEVSSVFIFPPKPKDVLTITLTPKVTCVVVDISKDDPEVQFSWFVDDVEVHTAQTQPREEQFNSTFRSVSELPIMHQDWLNGKEFKCRVNSAAFPAPIEKTISKTKGRPKAPQVYTIPPPKEQMAKDKVSLTCMITDFFPEDITVEWQWNGQPAENYKNTQPIMDTDGSYFVYSKLNVQKSNWEAGNTFTCSVLHEGLHNHHTEKSLSHSPGIGHHHHHHHH
